Ends that are not written are not given here. * marks the point of attachment. Dansyl = CN(C)c1cccc2c(S(=O)(=O)*)cccc12
Columns and labels:
[1] = target: T1, collagen; assay: fluorescence plate binding assay, dansyl peptide on collagen-coated 96-well plate, equilibrium
T1 construct: also called collagen-treated well; collagen surface
Protocol: (§1) Binding assays were done in a 96-well high-binding plate, black with a clear bottom (Costar). Collagen was compared to untreated wells and BSA coated wells. Collagen and BSA were immobilized at 37° C. for 1 hr by incubating 90 μL/well at concentrations of 2 mg/mL in 10 mM HCl and 1× PBS, respectively. Each well was washed 3× with 1× PBS after incubating. Z-SILY was dissolved in 1× PBS at concentrations from 100 μM to 10 nM in 10-fold dilutions. Wells were incubated for 30 min at 37° C. and rinsed 3× with PBS and then filled with 90 μL of 1× PBS. Fluorescence readings were taken on an M5 Spectramax Spectrophotometer (Molecular Devices) at excitation/emission wavelengths of 335 nm/490 nm respectively.

[2] = target: T1, collagen; assay: fluorescence plate binding assay, dansyl peptide on collagen-coated wells, curve fitted to the data of FIG. 3
Protocol: as §1

B1: Dansyl-GRRANAALKAGELYKSILYGC (peptide)
peptide: Dansyl-GRRANAALKAGELYKSILYGC
notes: Fluorescently labelled version of SILY, tested as free peptide; also called ZSILY; Z-SILY
- Kd [1]: 860 nM
- EC50 (read off the curve) [2]: ~900 nM
